For one protein, Km, kcat and kcat/Km results are on record in paper PMC9063846, “The structure of Phocaeicola vulgatus sialic acid acetylesterase” (Acta Crystallographica. Section D, Structural Biology, 2022).

Substrate in this data set: CC(=O)Oc1ccc([N+](=O)[O-])cc1
The data set can be described thus: purified protein. As to conditions: 10 nM enzyme, 100 mM phosphate-citrate buffer pH 7.0, 25 °C, 1% DMSO. It is filed as biochemical, Phocaeicola vulgatus.

B1: PvSAE (Phocaeicola vulgatus ATCC 8482) (protein)
chain: ERKYSTFYEQRATLFEELPVTSKDIIFLGNSITNGCEWAELFQNKNVKNRGISGDICMGVYDRLDPIVKGKPAKIFLLIGINDVSRGTSADKIISEISMIVRKIKQESPKTKLYLQSVLPVNDCYGMFNGHTSRWQVVKQINDLLEPLAVKEGVAYIDLYSHFVEKETGKMNPVYTNDGLHLLGKGYLLWRDIVKPYVDQK
notes: signal peptide removed (predicted cleavage 19/20); E. coli BL21(DE3) Gold
For orientation: Km means the concentration of substrate that gives half-maximal velocity. What is called kcat is the maximal rate divided by the concentration of active sites. One may read the kcat/Km as the turnover number divided by the Michaelis constant. For B1, the Km is 80 ± 6 µM, the kcat worked out at 75 ± 1 s⁻¹ and the catalytic efficiency (kcat/Km) was 930000 ± 70000 M⁻¹ s⁻¹.
